Laboratory results published in the supplement of paper PMC12764529.
± gives the half width of the 95% confidence interval.

What was measured:
[1] = folding stability dG unfold from chymotrypsin proteolysis; higher = more stable
Summary of the method: (§1)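 Sequencing followed digestion of designed mini-proteins with trypsin and chymotrypsin, each at 11 concentrations in threefold dilutions together with a no-protease condition. The mini-proteins were under 80 residues, had no cysteine, sat in a PA-tagged cDNA display construct, and were kept only if AlphaFold2 dimer inter-PAE was above 15. From the counts, Bayesian fitting gave K50, and unfolding free energy was derived against a sequence-predicted unfolded-state K50 and a shared folded-state K50, per protease or combined.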

[2] = folding stability dG unfold from trypsin proteolysis; higher = more stable
Summary of the method: as §1

[3] = folding stability dG unfold (combined trypsin and chymotrypsin); higher = more stable
Summary of the method: as §1

Row | Sequence | folding stability dG unfold [1] [kcal/mol] | folding stability dG unfold [2] [kcal/mol] | folding stability dG unfold [3] [kcal/mol]
1 | SAGGSAGGSAGGSIEIIVRTPEMAKQMAKRIQKILADQGNPPPLKIEIHVIPPDDLPPWSAGGSAGGSAGGS [r4_472_TrROS] | 0.571 ± 0.092 | -0.0989 ± 0.26 | 0.388 ± 0.15
2 | SAGMVIKVEVIYNGKKYTIEISEEQLKELLEKLKPGDEVEIEINGEKVLVRVEVVEPPEPSEEELKALKSAG [r5_669_TrROS_Hall] | 2.1 ± 0.2 | 0.944 ± 0.087 | 1.69 ± 0.24
3 | SAGGSAGGSAGGSKTIEIELPGMSPEEIAAAIAEELGLDDVKITVERTEDGLLRVTIEVSAGGSAGGSAGGS [r4_408_TrROS_Hall] | 1.81 ± 0.049 | 1.57 ± 0.057 | 1.76 ± 0.057
4 | SAGGSAGGSAGVRIDKDGWTIKWYNPDGEKRTFTVDSPEEAKDFLEENFPPGWRVEIEPPSAGGSAGGSAGG [r11_983_TrROS] | 1.38 ± 0.056 | 1.11 ± 0.046 | 1.33 ± 0.13
5 | SMPLTPEEVEEVVEAVAKELEEETGEEVKAEVFYDPETGRFYAVIELPDGRRVRIEIDPETGEVRVEVEASA [r9_9_TrMRF] | 4.17 ± 0.15 | 3.8 ± 0.13 | 4.02 ± 0.1
6 | SAGGITIVWQPGYFRIEFPGNGNTVPIPIPPDDPGRTLEEFADEFIDEMSERFGIPPPEDIKIEYYDSAGGS [r8_402_TrROS] | 1.36 ± 0.084 | 1.31 ± 0.13 | 1.39 ± 0.15
7 | SAGGSAGMPSVPVERTVTVTVVDAEGNLVGTVTLTLTFPGGVSEEEREAAIAAAIEAAVPPAGVVSSAGGSA [r15_310_JUSTAS] | 2.26 ± 0.059 | 2.56 ± 0.077 | 2.41 ± 0.076
8 | SAGIPYRVLELEIPGVGVRVEVRLAPDGRIVEVRVTVVPVPPVPPALPLRPELLVPDEDGRWYSPEELLSAG [r5_685_TrMRF] | 2.26 ± 0.028 | 2.68 ± 0.059 | 2.44 ± 0.11
9 | SAGASPGVRLTERSEEVIEVEPGEKEKLKEEIKKSEKKYPGGLTEKVEYEVDPNSNKVTITITTTTGLSAGG [r19_45_JUSTAS] | 0.664 ± 0.084 | -0.351 ± 0.23 | 0.383 ± 0.33
10 | SASPALELAKEIAEKIEPLFPDISPVEVTVTPRGSTALGTIKFKRPDGKELVAKMIVSAGGDPVEIILLSAG [r14_719_JUSTAS] | 1.26 ± 0.25 | 1.56 ± 0.14 | 1.51 ± 0.21
11 | SAGGSAGGPLVLRIETPEDKVLVLVLPEEAEKLPPKELAEIAAKEFAALPGVKEVKVEIAPLPLSAGGSAGG [r6_710_TrMRF] | 1.11 ± 0.15 | 0.885 ± 0.058 | 1.03 ± 0.12
12 | SAGGSAGGSDYKIEIEVEPMDPEDGYYQVELEIYDPNNGEPKEKIPVHMDSPEDAKDAIKELISAGGSAGGS [r12_26_TrROS] | 0.362 ± 0.024 | 0.499 ± 0.09 | 0.456 ± 0.084
13 | SAGGSAGGWIIRIHFPNGHEHTFKIKSPEEAKDRIMDHHGMPPDKIPPETIKDVEIIPPDAMKESAGGSAGG [r6_588_TrROS] | 0.604 ± 0.12 | -0.0377 ± 0.11 | 0.434 ± 0.18
14 | SAGGSAGGWITLDLIKELAREAMNQAQLNGMENVPIEIRWPDGWRIKIEINMNKVEVDVQPWNDSAGGSAGG [r6_270_TrROS] | 2.57 ± 0.079 | 1.9 ± 0.11 | 2.4 ± 0.15
15 | MTEEEVRAEAEARARALAEERGVEITAVDIDGEVEQVVETTTRPTPDGRPVTETTSKKIKTKVRATLRPPRS [r1_91_JUSTAS] | 1.39 ± 0.053 | -0.107 ± 0.27 | 1.09 ± 0.14
16 | SAGGKVTVENDTLTIPFPDGFTVEITLPPNDKTAVITLHTPPNNPLALAAAKAIADSLPDYKVEVRDESAGG [r13_34_TrMRF] | 0.649 ± 0.06 | 0.662 ± 0.035 | 0.704 ± 0.07
17 | SAGGSAGGSAEPPPLVVVTEVRTITVEIDLDDLSEEEREALENLDTVTITVTRVVVVPREDLSAGGSAGGSA [r18_127_TrROS_Hall] | 1.39 ± 0.22 | 2.42 ± 0.22 | 1.84 ± 0.46
